Test results taken from patent publication US20130129739A1.

Target: human prolactin receptor (PRLR) on cells (human) (UniProt P16471)
Test: cell-based or functional assay

human prolactin receptor (PRLR) on cells (human), sequence (P16471 25-622): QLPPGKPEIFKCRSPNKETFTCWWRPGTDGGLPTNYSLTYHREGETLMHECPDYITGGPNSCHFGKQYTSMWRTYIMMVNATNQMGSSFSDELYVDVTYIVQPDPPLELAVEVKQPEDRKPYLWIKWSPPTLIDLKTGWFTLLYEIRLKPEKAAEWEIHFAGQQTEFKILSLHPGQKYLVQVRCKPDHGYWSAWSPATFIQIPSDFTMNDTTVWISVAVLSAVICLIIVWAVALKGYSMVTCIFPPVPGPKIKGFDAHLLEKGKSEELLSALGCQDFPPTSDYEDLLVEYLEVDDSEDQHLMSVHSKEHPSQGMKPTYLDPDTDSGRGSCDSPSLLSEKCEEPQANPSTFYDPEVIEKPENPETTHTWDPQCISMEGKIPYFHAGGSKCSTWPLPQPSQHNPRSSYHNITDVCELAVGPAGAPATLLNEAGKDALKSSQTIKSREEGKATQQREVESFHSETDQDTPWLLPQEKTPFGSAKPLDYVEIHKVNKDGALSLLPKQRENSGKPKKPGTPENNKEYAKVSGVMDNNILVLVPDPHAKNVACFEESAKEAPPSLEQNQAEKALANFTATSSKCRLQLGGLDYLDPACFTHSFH

- Inhibition of phosphorylation of ERK1/2 in % at 7.5 µg/ml (ELISA, prolactin-treated T47D lysates): 9%
- Inhibition of phosphorylation of PRLR in % at 7.5 µg/ml (ELISA, prolactin-treated T47D lysates): 2%
- Inhibition of phosphorylation of STAT5 in % at 7.5 µg/ml (ELISA, prolactin-treated T47D lysates): 0%
Substance: Negative control (Table 8)
